For experiment [1], the target named is T1, human CD8 alpha (CD8A) on primary human CD8+ T cells (human, UniProt P01732 22-235).
T1 construct: whole, on cells
Description: flow cytometry, human CD8+ T cells, 0.2 uM. The procedure:
(§1) Binding of the 190 ELISA hits to human and cynomologous monkey primary CD8 T cells was assessed by flow cytometry. The FN3 domain molecules were diluted to 2 μM and 0.2 μM in PBS and incubated with human or cynomologous monkey CD8+ T cells in 96-well format. After 1 hour at 4° C., the cells were washed once with PBS and then resuspended with an anti-FN3 domain antibody (PAB25) solution. Following this incubation, the cells were washed twice with PBS and a PE conjugated secondary antibody and a viability dye were added. Finally, cells were washed and resuspended in PBS for flow cytometric analysis using a BD Canto Instrument. Cells were gating on live cells and median fluorescence intensity of the bound Centyrins (PE channel) was calculated using Cytobank software.

For experiment [2], the target named is T2, cynomolgus monkey CD8A on primary cynomolgus CD8+ T cells (cynomolgus monkey, UniProt P01732 23-235 (human entry)).
T2 construct: also called Cyno CD8alpha
T2 sequence (P01732 other isoform, or with tags, fused parts or gaps limits assumed): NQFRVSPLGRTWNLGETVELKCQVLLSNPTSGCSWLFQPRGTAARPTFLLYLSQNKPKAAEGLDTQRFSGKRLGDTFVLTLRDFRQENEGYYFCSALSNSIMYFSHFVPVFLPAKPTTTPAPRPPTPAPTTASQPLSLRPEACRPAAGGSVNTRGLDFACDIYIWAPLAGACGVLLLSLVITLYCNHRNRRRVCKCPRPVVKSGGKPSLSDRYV
Description: flow cytometry, cyno CD8+ T cells, 2 uM. The procedure:
as §1

Experiment [3] addresses T1, human CD8 alpha (CD8A) on primary human …. Put plainly: flow cytometry, human CD8+ T cells, 2 uM. The procedure:
as §1

The target of experiment [4] is T2, cynomolgus monkey CD8A on primary …. Put plainly: flow cytometry, cyno CD8+ T cells, 0.2 uM. As to the method: as §1

T1 sequence (P01732 22-235): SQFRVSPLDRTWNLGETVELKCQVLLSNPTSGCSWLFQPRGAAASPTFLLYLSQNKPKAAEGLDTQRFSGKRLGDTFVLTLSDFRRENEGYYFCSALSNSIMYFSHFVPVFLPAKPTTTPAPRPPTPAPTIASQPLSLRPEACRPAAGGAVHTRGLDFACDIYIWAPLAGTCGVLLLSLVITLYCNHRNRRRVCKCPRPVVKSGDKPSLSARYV

B1: Tencon25-His (designed binder, not shown: small tags and cut ends)
chain: LPAPKNLVVSEVTEDSARLSWTAPDAAFDSFLIQYQESEKVGEAIVLTVPGSERSYDLTGLKPGTEYTVSIYGVKGGHRSNPLSAIFTT
notes: kd not given
For the molecule B1, the “Human T-cell Binding 0.2 uM (MFI)” value in experiment [1] turned out to be 219 MFI. For the same molecule, in experiment [2], the “Cyno T-cell Binding 2 uM (MFI)” value came to 337 MFI. Further, the “Human T-cell Binding 2 uM (MFI)” value in experiment [3] was 341 MFI. The “Cyno T-cell Binding 0.2 uM (MFI)” value in experiment [4] is 336 MFI.

Values taken from US20240301033A1 (published 2024).
